The source of these data is patent US20220267464A1 (Hoffmann-La Roche, published 2022).

The target in test [1] is T1, hu N(A2-B2)A-avi-His (human, biotin on the avi tag where used biotinylated).
T1 construct: chimeric soluble antigen; also called hu N(A2-B2)A-avi-His B; human CEA (A2 domain)
T1 chain: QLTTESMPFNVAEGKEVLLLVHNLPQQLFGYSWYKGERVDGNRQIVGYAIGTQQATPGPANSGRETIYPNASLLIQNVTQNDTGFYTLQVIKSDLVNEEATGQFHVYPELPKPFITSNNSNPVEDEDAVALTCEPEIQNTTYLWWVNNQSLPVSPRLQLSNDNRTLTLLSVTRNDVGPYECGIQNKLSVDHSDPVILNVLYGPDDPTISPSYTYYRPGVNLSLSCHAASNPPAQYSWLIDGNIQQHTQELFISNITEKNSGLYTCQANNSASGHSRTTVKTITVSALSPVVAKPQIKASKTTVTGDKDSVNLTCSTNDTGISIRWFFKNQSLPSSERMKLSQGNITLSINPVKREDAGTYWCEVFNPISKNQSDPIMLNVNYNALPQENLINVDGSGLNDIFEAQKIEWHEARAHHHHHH
The test can be described thus: SPR (ProteOn XPR36), Fab in bacterial supernatant, biotinylated antigen on NLC chip. The source says: (§1) For this experiment, about 2000, 1000, and 500 RU of biotinylated N(A2B2)A-avi-His were immobilized on 3 channels using a Streptavidin-coated NLC chip in vertical orientation. As a control for non-specific binding, 2000 RU of biotinylated NA(B2)A-avi-His protein was immobilized on channel 4. For the off-rate analysis of the identified ELISA-positive clones, injection direction was changed to horizontal orientation. Before injection, each Fab-containing bacterial supernatant was filtered and 3-fold diluted with PBS. The association time was 100 s at 100 μl/minute and dissociation times were either 600 or 1200 s. Bacterial supernatant without Fab fragment was used for referencing. Regeneration was performed with 10 mM glycine pH 1.5 for 35 s at 50 μl/min (vertical orientation).
(§2) Dissociation rate constants (koff) were calculated using a simple one-to-one Langmuir binding model in ProteOn Manager v3.1 software by simultaneously fitting the sensorgrams. […] Shortlisted clones were re-evaluated in an additional SPR experiments under the same conditions. […] Bacterial supernatant without Fab fragment was used for referencing.

Test [2] concerns the target T1, hu N(A2-B2)A-avi-His. Description: SPR (ProteOn XPR36), purified Fab, biotinylated antigen on NLC chip. The protocol: Affinity (KD) of purified Fab fragments was measured by surface plasmon resonance using a Proteon XPR36 machine using the same setup as described before.
About 2000, 1000, 500, and 250 RU of biotinylated N(A2B2)A-avi-His were immobilized on 4 channels of a Streptavidin-coated NLC chip in vertical orientation. As a control for non-specific binding, 2000 RU of biotinylated NA(B2)A-avi-His protein was immobilized on channel 5. For the determination of the affinity (KD) of the purified clones, injection direction was changed to horizontal orientation. Two-fold dilution series of purified Fab fragments (varying concentration ranges between 100 and 3 nM) were injected simultaneously at 100 μl/min along separate channels 1-5, with association times of 100 s, and dissociation times of 1200 s. Buffer (PBST) was injected along the sixth channel to provide an “in-line” blank for referencing. Regeneration was performed with 10 mM glycine pH 1.5 for 35 s at 50 μl/min (vertical orientation).
Association rate constants (kon) and dissociation rate constants (koff) were calculated using a simple one-to-one Langmuir binding model in ProteOn Manager v3.1 software by simultaneously fitting the association and dissociation sensorgrams. The equilibrium dissociation constant (KD) was calculated as the ratio koff/kon.

In test [3] the target is T2, NA(B2)A-avi-His (human, biotin on the avi tag).
T2 construct: chimeric soluble control antigen without the CEACAM5 A2 domain
T2 chain: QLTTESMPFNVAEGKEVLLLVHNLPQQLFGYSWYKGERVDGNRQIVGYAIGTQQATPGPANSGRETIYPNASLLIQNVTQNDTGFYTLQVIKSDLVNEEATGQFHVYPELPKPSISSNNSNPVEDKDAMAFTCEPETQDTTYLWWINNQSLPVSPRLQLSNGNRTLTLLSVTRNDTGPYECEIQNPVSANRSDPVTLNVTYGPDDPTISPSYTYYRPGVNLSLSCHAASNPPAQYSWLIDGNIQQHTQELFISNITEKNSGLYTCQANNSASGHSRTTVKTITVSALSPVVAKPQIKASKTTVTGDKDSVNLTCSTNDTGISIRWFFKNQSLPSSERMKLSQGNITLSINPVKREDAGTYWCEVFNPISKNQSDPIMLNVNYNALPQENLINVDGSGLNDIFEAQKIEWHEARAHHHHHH
Description: SPR (ProteOn), Fab in bacterial supernatant, 2000 RU antigen.
Text: as §1, §2

Test [4] has as its target T1, hu N(A2-B2)A-avi-His. Description: SPR (Biacore T200), antigen on CM5 chip, Fab as analyte. The source says: Data were double-referenced against the unimmobilized flow cell 1 and a zero concentration of the analyte. The sensorgrams of the analytes were fitted to a simple 1:1 Langmuir interaction model.
For test [5], the target named is T3, human CEA (CEACAM5), form in the assay not stated (human, UniProt P06731 35-685, limits assumed).
T3 sequence: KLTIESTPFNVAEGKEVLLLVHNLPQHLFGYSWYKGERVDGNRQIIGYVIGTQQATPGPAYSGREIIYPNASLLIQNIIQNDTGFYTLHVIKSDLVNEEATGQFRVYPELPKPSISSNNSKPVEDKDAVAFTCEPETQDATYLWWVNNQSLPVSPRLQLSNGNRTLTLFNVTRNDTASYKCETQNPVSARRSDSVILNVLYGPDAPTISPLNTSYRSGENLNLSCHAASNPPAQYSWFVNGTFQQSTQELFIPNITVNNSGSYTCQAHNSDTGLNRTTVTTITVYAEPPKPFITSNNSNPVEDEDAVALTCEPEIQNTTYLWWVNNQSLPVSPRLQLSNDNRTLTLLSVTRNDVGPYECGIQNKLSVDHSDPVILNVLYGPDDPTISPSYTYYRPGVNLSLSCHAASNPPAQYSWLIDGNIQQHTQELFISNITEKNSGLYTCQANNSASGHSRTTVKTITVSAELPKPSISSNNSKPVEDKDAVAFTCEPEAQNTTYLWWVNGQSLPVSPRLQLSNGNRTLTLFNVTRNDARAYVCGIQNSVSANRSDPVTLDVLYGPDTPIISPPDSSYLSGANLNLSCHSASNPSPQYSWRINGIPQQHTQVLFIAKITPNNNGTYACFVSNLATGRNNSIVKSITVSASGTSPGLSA
The test can be described thus: SPR.

Positions count from the first letter of the chain named. Names and notes keep the numbering of the source.

B1: A5H1EL1D Fab (phagemid-derived) (Fab, V domains shown)
VH: EVQLLESGGGLVQPGGSLRLSCAASGFTFTDYYMNWVRQAPGKGLEWLGFIGNKANAYTTEYSASVKGRFTISRDKSKNTLYLQMNSLRAEDTATYYCTRDRGLRFYFDYWGQGTTVTVSS
VL: EIVLTQSPATLSLSPGERATLSCRASSSVTYIHWYQQKPGQAPRSWIYATSNLASGIPARFSGSGSGTDFTLTISSLEPEDFAVYYCQHWSSKPPTFGQGTKLEIK
notes: Flag tag; also called parental humanized clone A5H1EL1D
What is called koff is a measure of how fast the partners let go of each other. Lower therefore signals a long-lived complex. One may read the Kd as a measure of binding affinity in units of concentration. High values mean lower affinity, low ones higher affinity. A word on the kon: it is the second-order rate constant of association. B1 had a dissociation rate constant (koff) in test [1] of 0.00031 s⁻¹. Moreover, in test [2], binding was characterised by a dissociation constant (Kd) of 2.3 nM, the koff came out at 0.000248 s⁻¹ and the kon was found to be 108000 M⁻¹ s⁻¹.

B2: P006.038 Fab (Fab, V domains shown)
VH: B1 VH with L104I, Y107G
VL: B1 VL with K93V
notes: Fab from E. coli (supernatant or IMAC-purified); Flag tag; also called CEA (P006.038)
In test [1], B2 yielded a koff of 7.41e-05 s⁻¹. For the same molecule, the binding result in test [3] was “no binding”. In test [2], this molecule returned a Kd of 0.25 nM, a koff of 5.78e-05 s⁻¹ and a kon of 225000 M⁻¹ s⁻¹.

B3: P002.139 Fab (Fab, V domains shown)
VH: B1 VH with T28Y, Y33A, F50V, G52S
VL: B1 VL with R24H
notes: Fab from E. coli (supernatant or IMAC-purified); Flag tag; also called CEA (P002.139)
In the case of B3, the koff in test [1] amounted to 6.47e-05 s⁻¹. Besides, the binding result in test [3] is “no binding”. In test [2], this molecule registered a Kd of 0.63 nM, a koff of 6.53e-05 s⁻¹ and an association rate constant (kon) of 105000 M⁻¹ s⁻¹.

B4: P1AE4140 (Fab, V domains shown)
VH: B1 VH with L48V, A57G, K76N, T95V
VL: B1 VL
notes: Fab fragment; also called Fab derived from P1AE2177
In test [4], B4 showed a Kd of 7.62 nM.

B5: P1AE4141 (Fab, V domains shown)
VH: B1 VH with L48V, A57G, T95V, T99A
VL: B1 VL with E1Q, I2T, Q41S, A42S, R44K, F70Y
notes: Fab fragment; also called Fab derived from P1AE2179
As for B5, in test [4], the Kd came to 1.83 nM.

B6: P1AE4143 (Fab, V domains shown)
VH: B1 VH with L48V, A57G, T95V, T99A
VL: B1 VL
notes: Fab fragment; also called Fab derived from P1AE2182
For the molecule B6, the Kd in test [4] is 2.92 nM.

B7: A5H1EL1D humanized anti-CEA antibody (format in the assay not stated) (antibody, V domains shown)
VH: B1 VH
VL: B1 VL
notes: also called huA5B7; 3-23A5-1E / A5-L1D
In test [5], B7 came in with a Kd of about 2.5 nM.

B8: P001.177 Fab (Fab, V domains shown)
VH: B1 VH with T28Y, G52S
VL: B1 VL
notes: Fab from E. coli (supernatant or IMAC-purified); Flag tag; also called CEA (P001.177)
In the case of B8, the koff in test [1] stood at 9.81e-05 s⁻¹. Also, the binding result in test [3] is “no binding”. In test [2], this molecule registered a Kd of 0.29 nM, a koff of 7.85e-05 s⁻¹ and a kon of 267000 M⁻¹ s⁻¹.

B9: P005.097 Fab (Fab, V domains shown)
VH: B1 VH with Y107S
VL: B1 VL with K93Q
notes: Fab from E. coli (supernatant or IMAC-purified); Flag tag; also called CEA (P005.097)
Regarding B9, the koff in test [1] was 8.87e-05 s⁻¹. For the same molecule, the binding result in test [3] was “no binding”. Also, in test [2], the Kd was found to be 0.91 nM, the koff was 8.54e-05 s⁻¹ and the kon is 94000 M⁻¹ s⁻¹.

B10: P1AE4142 (Fab, V domains shown)
VH: B1 VH with L48V, A57G, T95V, T99A
VL: B1 VL with Q41S, A42S, R44K
notes: Fab fragment; also called Fab derived from P1AE2181
Take B10: the Kd in test [4] was found to be 2.64 nM.

B11: P1AE4139 (Fab, V domains shown)
VH: B1 VH with L48V, A57G, K76N, T95V
VL: B1 VL with Q41S, A42S, R44K
notes: Fab fragment; also called Fab derived from P1AE2176
With B11, in test [4], the affinity, expressed as Kd, was 7.58 nM.

B12: P005.102 Fab (Fab, V domains shown)
VH: B1 VH with L104I, Y107Q
VL: B1 VL with P94S
notes: Fab from E. coli (supernatant or IMAC-purified); Flag tag; also called CEA (P005.102)
Molecule B12 gave a koff in test [1] of 4.24e-05 s⁻¹. For the same molecule, the binding result in test [3] is reported as “no binding”. In test [2], this molecule gave a Kd of 0.29 nM, a koff of 3.92e-05 s⁻¹ and a kon of 134000 M⁻¹ s⁻¹.

B13: P1AE4137 (Fab, V domains shown)
VH: B1 VH with A57G
VL: B1 VL with Q41S, A42S, R44K
notes: Fab fragment; also called Fab derived from P1AE2166
Take B13: the Kd in test [4] was determined as 11.3 nM.

B14: P005.103 Fab (Fab, V domains shown)
VH: B1 VH with L104I
VL: B1 VL with K93I, P94S
notes: Fab from E. coli (supernatant or IMAC-purified); Flag tag; also called CEA (P005.103)
B14: in test [1], the koff is 5.37e-05 s⁻¹. Further, the binding result in test [3] is given as “no binding”. In test [2], this molecule showed a Kd of 0.5 nM, a dissociation rate constant (koff) of 4.99e-05 s⁻¹ and a kon of 100000 M⁻¹ s⁻¹.

B15: A5B7 parental murine anti-CEA antibody (antibody, V domains shown)
VH: EVKLVESGGGLVQPGGSLRLSCATSGFTFTDYYMNWVRQPPGKALEWLGFIGNKANGYTTEYSASVKGRFTISRDKSQSILYLQMNTLRAEDSATYYCTRDRGLRFYFDYWGQGTTLTVSS
VL: QTVLSQSPAILSASPGEKVTMTCRASSSVTYIHWYQQKPGSSPKSWIYATSNLASGVPARFSGSGSGTSYSLTISRVEAEDAATYYCQHWSSKPPTFGGGTKLEIK
notes: also called parental chimeric antibody
In test [5], B15 showed a Kd of about 0.8 nM.
